Measurements as given in article PMC8101287 (2020).
Where “and” joins values, the source holds several entries; their conditions need not be identical. Equal entries are not always repeated. Where two headings read alike, the source gives them in different places.

Columns and labels:
[1] = molecular target: T1, HLA‐DR1 (HLA‐DRA1*01:01/HLA‐DRB*01:01) complexed with the HA_(306‐318) peptide, refolded from E. coli (human | ); test: SPR
[2] = molecular target: T1, HLA‐DR1 (HLA‐DRA1*01:01/HLA‐DRB*01:01) …; test: SPR; remark: listed apart in the source

B1: LAG‐3:Fc fusion protein (four extracellular domains of LAG‐3 and the Fc domain of IgG) (Fc fusion)
chain: LQPGAEVPVVWAQEGAPAQLPCSPTIPLQDLSLLRRAGVTWQHQPDSGPPAAAPGHPLAPGPHPAAPSSWGPRPRRYTVLSVGPGGLRSGRLPLQPRVQLDERGRQRGDFSLWLRPARRADAGEYRAAVHLRDRALSCRLRLRLGQASMTASPPGSLRASDWVILNCSFSRPDRPASVHWFRNRGQGRVPVRESPHHHLAESFLFLPQVSPMDSGPWGCILTYRDGFNVSIMYNLTVLGLEPPTPLTVYAGAGSRVGLPCRLPAGVGTRSFLTAKWTPPGGGPDLLVTGDNGDFTLRLEDVSQAQAGTYTCHIHLQEQQLNATVTLAIITVTPKSFGSPGSLGKLLCEVTPVSGQERFVWSSLDTPSQRSFSGPWLEAQEAQLLSQPWQCQLYQGERLLGAAVYFTELSSPGAQRSGRAPGALPAGHL
Question: Which Kd [1] does the source give for B1 here?
Answer: 7300 nM

Question: And the Kd [2]?
Answer: 3000 nM and 1000 nM
